Experimental data: publication doi:10.1101/2019.12.17.877662 (bioRxiv, 2019)
Blank lines part the entries; values can stand above or below the binder they belong to.

B1: TtRecF_(D57C) (natural protein, Thermus thermophilus, UniProt Q5SLM9 1-343, looked up)
chain: MRLLLFRQRNFRNLALEAYRPPPGLSALVGANAQGKTSLLLGIHLALGGEVPLGLACLVRFGEEEAWLHAEVETELGAYRLEHRLGPGGREVLLNGKRVSLRTLWELPGSVLVSPLDLEAVLGPKEERRAYLDRLIARFSRRYAALLSAYEKALRQRNALLKAGGEGLSAWDRELARYGDEIVALRRRFLRRFAPILREVHAALAAKEAGLRLEETAGEGVLRALEASRAEERERGQTLVGPHRDDLVFLLEGRPAHRFASRGEAKTLALALRLAEHRLLGEHHGEPPLLLVDEWGEELDEARRRAVLAYAQALPQAILAGLEAPPGVPVCSVVRGVVLCPGA
B2: TtRecF_(S261C) (natural protein, Thermus thermophilus, UniProt Q5SLM9 1-343, looked up)
chain: MRLLLFRQRNFRNLALEAYRPPPGLSALVGANAQGKTSLLLGIHLALGGEVPLGLADLVRFGEEEAWLHAEVETELGAYRLEHRLGPGGREVLLNGKRVSLRTLWELPGSVLVSPLDLEAVLGPKEERRAYLDRLIARFSRRYAALLSAYEKALRQRNALLKAGGEGLSAWDRELARYGDEIVALRRRFLRRFAPILREVHAALAAKEAGLRLEETAGEGVLRALEASRAEERERGQTLVGPHRDDLVFLLEGRPAHRFACRGEAKTLALALRLAEHRLLGEHHGEPPLLLVDEWGEELDEARRRAVLAYAQALPQAILAGLEAPPGVPVCSVVRGVVLCPGA

Columns and labels:
TtRecF;TtRecR G169C = target: T1, TtRecF;TtRecR G169C (Thermus thermophilus;Thermus …, UniProt Q5SLM9;Q5SHY0 1-343;1-194, |G169C); assay: EMSA
T1 sequence 1: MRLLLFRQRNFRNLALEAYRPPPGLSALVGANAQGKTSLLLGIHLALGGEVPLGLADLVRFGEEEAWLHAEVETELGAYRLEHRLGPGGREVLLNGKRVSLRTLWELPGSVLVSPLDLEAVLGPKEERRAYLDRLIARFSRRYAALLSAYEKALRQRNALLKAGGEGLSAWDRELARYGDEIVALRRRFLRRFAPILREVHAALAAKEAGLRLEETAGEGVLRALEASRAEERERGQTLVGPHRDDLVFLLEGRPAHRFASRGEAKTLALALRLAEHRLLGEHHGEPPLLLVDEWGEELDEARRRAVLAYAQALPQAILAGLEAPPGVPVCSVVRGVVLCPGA
T1 sequence 2: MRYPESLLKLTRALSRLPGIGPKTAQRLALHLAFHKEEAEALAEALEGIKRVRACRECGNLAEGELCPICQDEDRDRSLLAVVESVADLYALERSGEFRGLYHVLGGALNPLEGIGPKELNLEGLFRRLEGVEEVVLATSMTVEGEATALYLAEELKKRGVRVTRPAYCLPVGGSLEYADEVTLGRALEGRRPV

TtRecF;TtRecR = target: T2, TtRecF;TtRecR (Thermus thermophilus;Thermus …, UniProt Q5SLM9;Q5SHY0 1-343;1-194, |); assay: EMSA
T2 sequence 1: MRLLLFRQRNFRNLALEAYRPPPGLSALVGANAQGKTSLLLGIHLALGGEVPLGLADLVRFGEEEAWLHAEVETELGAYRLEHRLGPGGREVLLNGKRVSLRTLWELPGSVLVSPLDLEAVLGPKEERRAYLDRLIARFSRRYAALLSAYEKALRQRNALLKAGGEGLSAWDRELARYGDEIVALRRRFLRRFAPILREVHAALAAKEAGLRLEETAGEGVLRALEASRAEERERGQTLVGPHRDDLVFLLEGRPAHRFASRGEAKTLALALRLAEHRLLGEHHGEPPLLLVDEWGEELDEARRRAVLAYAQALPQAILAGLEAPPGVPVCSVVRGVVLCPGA
T2 sequence 2: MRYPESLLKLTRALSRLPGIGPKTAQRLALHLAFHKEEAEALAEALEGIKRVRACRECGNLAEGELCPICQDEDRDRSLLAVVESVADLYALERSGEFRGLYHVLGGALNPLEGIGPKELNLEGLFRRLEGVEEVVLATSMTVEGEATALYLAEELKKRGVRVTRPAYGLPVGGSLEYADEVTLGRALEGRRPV

TtRecR = target: T3, TtRecR (Thermus thermophilus, UniProt Q5SHY0 1-194); assay: EMSA
T3 sequence: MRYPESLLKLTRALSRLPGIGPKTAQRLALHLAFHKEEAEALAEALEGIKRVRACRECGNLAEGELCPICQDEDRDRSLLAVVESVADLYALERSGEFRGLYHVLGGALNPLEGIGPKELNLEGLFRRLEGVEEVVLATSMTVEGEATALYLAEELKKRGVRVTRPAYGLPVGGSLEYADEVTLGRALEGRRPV

TtRecF = target: T4, TtRecF (Thermus thermophilus, UniProt Q5SLM9 1-343); assay: EMSA
T4 sequence: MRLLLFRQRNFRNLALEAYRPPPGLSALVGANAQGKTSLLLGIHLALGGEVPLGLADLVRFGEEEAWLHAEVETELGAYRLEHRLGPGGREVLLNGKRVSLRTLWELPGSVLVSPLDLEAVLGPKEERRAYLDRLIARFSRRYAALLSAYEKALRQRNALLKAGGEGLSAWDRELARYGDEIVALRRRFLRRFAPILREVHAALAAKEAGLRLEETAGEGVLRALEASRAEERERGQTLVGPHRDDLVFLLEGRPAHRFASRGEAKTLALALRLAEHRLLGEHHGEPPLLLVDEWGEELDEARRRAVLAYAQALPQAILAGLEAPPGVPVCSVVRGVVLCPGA

TtRecR G169C = target: T5, TtRecR G169C (Thermus thermophilus, UniProt Q5SHY0 1-194, G169C); assay: EMSA
T5 sequence: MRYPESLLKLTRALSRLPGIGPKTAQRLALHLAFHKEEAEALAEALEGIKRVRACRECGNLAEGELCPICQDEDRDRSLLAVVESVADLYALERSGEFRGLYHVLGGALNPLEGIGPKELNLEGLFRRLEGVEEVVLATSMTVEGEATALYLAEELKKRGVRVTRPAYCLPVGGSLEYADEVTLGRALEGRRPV

cross-linking = target: the molecule itself; assay: cross-linking
[1] = target: T6, TtRecF (wild type RecF from Thermus thermophilus) (Thermus thermophilus, UniProt Q5SLM9 1-343); assay: native gel or EMSA
T6 sequence (looked up): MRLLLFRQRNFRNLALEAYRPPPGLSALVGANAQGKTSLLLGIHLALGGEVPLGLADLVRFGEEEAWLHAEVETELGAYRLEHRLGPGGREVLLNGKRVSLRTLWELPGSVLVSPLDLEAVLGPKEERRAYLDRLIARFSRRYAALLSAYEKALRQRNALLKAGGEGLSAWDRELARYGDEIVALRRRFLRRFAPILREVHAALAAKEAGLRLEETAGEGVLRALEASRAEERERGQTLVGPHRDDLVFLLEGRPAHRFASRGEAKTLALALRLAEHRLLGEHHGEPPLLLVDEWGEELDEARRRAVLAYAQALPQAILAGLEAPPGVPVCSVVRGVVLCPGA

TtRecF_(D57C) = target: B1; assay: BLI
TtRecF_(S261C) = target: B2; assay: BLI
crystal structure = target: the molecule itself; assay: crystal structure

Binder: TTTTTTTTTTTTTTTTTTTTTTTTTTTTTTTTTTT (ssDNA) [FAM-dT35]
binding result (TtRecF;TtRecR G169C): no binding
binding result (TtRecF;TtRecR): binds
binding result (TtRecR): no binding
binding result (TtRecF): no binding
binding result (TtRecR G169C): no binding

Binder: B1
stoichiometry N (cross-linking): 2

Binder: B2
stoichiometry N (cross-linking): 2

binding result [1]: binds
binding result (TtRecF_(D57C)): binds
binding result (TtRecF_(S261C)): binds
B3: TtRecR (wild type RecR from Thermus thermophilus) (natural protein, UniProt Q5SHY0 1-194, looked up)
chain: MRYPESLLKLTRALSRLPGIGPKTAQRLALHLAFHKEEAEALAEALEGIKRVRACRECGNLAEGELCPICQDEDRDRSLLAVVESVADLYALERSGEFRGLYHVLGGALNPLEGIGPKELNLEGLFRRLEGVEEVVLATSMTVEGEATALYLAEELKKRGVRVTRPAYGLPVGGSLEYADEVTLGRALEGRRPV
stoichiometry N (crystal structure): 4

binding result [1]: binds
B4: TtRecR_(G169C) (stabilized tetrameric mutant of TtRecR) (natural protein, Thermus thermophilus, UniProt Q5SHY0 1-194, looked up)
chain: MRYPESLLKLTRALSRLPGIGPKTAQRLALHLAFHKEEAEALAEALEGIKRVRACRECGNLAEGELCPICQDEDRDRSLLAVVESVADLYALERSGEFRGLYHVLGGALNPLEGIGPKELNLEGLFRRLEGVEEVVLATSMTVEGEATALYLAEELKKRGVRVTRPAYCLPVGGSLEYADEVTLGRALEGRRPV
stoichiometry N (cross-linking): 4
